The target in the experiment is C3 convertase complex (UniProt P01024 23-1663; P00751 260-764). Briefly: cell-based or functional assay.
For C3 convertase activity % of the control in this document: test concentration or dose not given here.

C3 convertase complex, sequence (P01024 23-1663, chain 1 of 2): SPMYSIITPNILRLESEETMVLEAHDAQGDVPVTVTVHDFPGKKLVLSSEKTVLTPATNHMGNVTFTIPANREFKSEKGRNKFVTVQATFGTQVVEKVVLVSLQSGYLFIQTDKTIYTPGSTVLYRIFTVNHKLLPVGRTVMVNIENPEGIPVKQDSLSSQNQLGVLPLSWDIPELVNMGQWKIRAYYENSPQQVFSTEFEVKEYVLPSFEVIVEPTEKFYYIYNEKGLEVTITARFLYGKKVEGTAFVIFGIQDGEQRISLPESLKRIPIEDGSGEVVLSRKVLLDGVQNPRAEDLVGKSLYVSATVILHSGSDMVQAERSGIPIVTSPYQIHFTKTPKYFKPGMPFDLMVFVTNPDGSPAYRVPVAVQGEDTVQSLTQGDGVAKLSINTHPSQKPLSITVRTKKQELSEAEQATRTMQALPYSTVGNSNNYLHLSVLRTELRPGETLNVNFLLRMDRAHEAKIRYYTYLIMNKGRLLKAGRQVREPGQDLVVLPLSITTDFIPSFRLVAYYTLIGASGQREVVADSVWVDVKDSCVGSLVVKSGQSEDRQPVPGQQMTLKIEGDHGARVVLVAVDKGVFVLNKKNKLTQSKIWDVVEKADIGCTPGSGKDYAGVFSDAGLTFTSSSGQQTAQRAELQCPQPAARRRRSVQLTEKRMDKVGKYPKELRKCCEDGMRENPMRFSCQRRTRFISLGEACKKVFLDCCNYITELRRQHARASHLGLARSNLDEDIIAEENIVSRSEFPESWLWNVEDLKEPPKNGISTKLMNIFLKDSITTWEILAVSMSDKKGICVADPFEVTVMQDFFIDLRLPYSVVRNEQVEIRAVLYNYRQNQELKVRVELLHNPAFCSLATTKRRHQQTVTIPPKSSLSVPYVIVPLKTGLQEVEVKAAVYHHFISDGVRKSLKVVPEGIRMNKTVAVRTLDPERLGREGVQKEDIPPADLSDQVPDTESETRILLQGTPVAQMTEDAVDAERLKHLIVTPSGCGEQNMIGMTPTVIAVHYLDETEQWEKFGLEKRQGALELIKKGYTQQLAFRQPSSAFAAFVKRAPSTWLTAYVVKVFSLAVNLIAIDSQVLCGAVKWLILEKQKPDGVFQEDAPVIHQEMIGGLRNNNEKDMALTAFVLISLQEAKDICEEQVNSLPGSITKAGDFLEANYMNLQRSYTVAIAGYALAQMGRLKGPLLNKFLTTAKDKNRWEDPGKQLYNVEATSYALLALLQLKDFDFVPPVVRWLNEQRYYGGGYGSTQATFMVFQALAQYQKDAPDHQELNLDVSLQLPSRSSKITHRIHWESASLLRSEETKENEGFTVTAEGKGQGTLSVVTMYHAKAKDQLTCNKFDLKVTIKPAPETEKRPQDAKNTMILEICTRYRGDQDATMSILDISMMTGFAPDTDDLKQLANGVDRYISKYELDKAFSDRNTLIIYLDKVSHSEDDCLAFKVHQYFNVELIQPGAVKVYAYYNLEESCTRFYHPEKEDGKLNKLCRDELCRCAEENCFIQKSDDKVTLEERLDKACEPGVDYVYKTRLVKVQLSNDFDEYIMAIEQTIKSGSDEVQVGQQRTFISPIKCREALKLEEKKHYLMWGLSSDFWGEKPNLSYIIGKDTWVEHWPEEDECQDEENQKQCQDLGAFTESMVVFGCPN
C3 convertase complex, sequence (P00751 260-764, chain 2 of 2): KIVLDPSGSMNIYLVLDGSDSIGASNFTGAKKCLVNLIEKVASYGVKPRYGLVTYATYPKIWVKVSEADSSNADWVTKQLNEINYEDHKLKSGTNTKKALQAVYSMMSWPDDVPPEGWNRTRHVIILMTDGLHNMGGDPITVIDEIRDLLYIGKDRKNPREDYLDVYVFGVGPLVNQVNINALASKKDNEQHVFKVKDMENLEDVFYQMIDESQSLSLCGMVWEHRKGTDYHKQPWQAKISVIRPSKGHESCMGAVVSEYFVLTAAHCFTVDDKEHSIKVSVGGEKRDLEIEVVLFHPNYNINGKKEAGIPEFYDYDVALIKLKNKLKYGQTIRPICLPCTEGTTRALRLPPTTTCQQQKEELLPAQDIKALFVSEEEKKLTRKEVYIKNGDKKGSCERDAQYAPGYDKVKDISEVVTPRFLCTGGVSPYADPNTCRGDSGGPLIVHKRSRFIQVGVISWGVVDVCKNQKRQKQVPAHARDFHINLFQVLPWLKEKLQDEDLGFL

B1: pCEP4-1NT7-19CT20 (other)
chain: EDCNELPPRRNTEILTGSWSDQTYPEGTQAIYKCRPGYRSLGNVIMVCRKGEWVALNPLRKCQKRPCGHPGDTPFGTFTLTGGNVFEYGVKAVYTCNEGYQLLGEINYRECDTDGWTNDIPICEVVKCLPVTAPENGKIVSSAMEPDREYHFGQAVRFVCNSGYKIEGDEEMHCSDDGFWSKEKPKCVEISCKSPDVINGSPISQKIIYKENERFQYKCNMGYEYSERGDAVCTESGWRPLPSCEEKSCDNPYIPNGDYSPLRIKHRTGDEITYQCRNGFYPATRGNTAKCTSTGWIPAPRCTLKPCDYPDIKHGGLYHENMRRPYFPVAVGKYYSYYCDEHFETPSGSYWDHIHCTQDGWSPAVPCLRKCYFPYLENGYNQNYGRKFVQGKSIDVACHPGYALPKAQTTVTCMENGWSPTPRCIRVKTGASGCGPPPPIDNGDITSFPLSVYAPASSVEYQCQNLYQLEGNKRITCRNGQWSEPPKCLHPCVISREIMENYNIALRWTAKQKLYSRTGESVEFVCKRGYRLSSRSHTLRTTCWDGKLEYPTCAKRGGSGHHHHHH
B1: the “C3 convertase activity % of the control” value is 12 % of the control and the “C3 convertase activity IC50” value worked out at 1.09 µg/mL.

B2: pCEP4-1NT10-14CT20 (other)
chain: EDCNELPPRRNTEILTGSWSDQTYPEGTQAIYKCRPGYRSLGNVIMVCRKGEWVALNPLRKCQKRPCGHPGDTPFGTFTLTGGNVFEYGVKAVYTCNEGYQLLGEINYRECDTDGWTNDIPICEVVKCLPVTAPENGKIVSSAMEPDREYHFGQAVRFVCNSGYKIEGDEEMHCSDDGFWSKEKPKCVEISCKSPDVINGSPISQKIIYKENERFQYKCNMGYEYSERGDAVCTESGWRPLPSCEEKSCDNPYIPNGDYSPLRIKHRTGDEITYQCRNGFYPATRGNTAKCTSTGWIPAPRCTLKPCDYPDIKHGGLYHENMRRPYFPVAVGKYYSYYCDEHFETPSGSYWDHIHCTQDGWSPAVPCLRKCYFPYLENGYNQNHGRKFVQGKSIDVACHPGYALPKAQTTVTCMENGWSPTPRCIRVKTCSKSSIDIENGFISESQYTYALKEKAKYQCKLGYVTADGETSGSITCGKDGWSAQPTCIKSCDIPVFMNARTKNDFTWFKLNDTLDYECHDGYESNTGSTTGSIVCGYNGWSDLPICYERECELPKIDVHLVPDRKKDQYKVGEVLKFSCKPGFTIVGPNSVQCYHFGLSPDLPICKEQVQSGASGCPPPPQIPNSHNMTTTLNYRDGEKVSVLCQENYLIQEGEEITCKDGRWQSIPLCVEKIPCSQPPQIEHGTINSSRSSQESYAHGTKLSYTCEGGFRISEENETTCYMGKWSSPPQCEGLPCKSPPEISHGVVAHMSDSYQYGEEVTYKCFEGFGIDGPAIAKCLGEKWSHPPSCIKTDCLSLPSFENAIPMGEKKDVYKAGEQVTYTCATYYKMDGASNVTCINSRWTGRPTCRDTSCVNPPTVQNAYIVSRQMSKYPSGERVRYQCRSPYEMFGDEEVMCLNGNWTEPPQCKDSTGKCGPPPPIDNGDITSFPLSVYAPASSVEYQCQNLYQLEGNKRITCRNGQWSEPPKCLHPCVISREIMENYNIALRWTAKQKLYSRTGESVEFVCKRGYRLSSRSHTLRTTCWDGKLEYPTCAKRGGSGHHHHHH
On to B2, for which the “C3 convertase activity % of the control” value is 14 % of the control and the “C3 convertase activity IC50” value amounted to 0.671 µg/mL.

B3: pCEP4-1NT4-11CT20 (other)
chain: EDCNELPPRRNTEILTGSWSDQTYPEGTQAIYKCRPGYRSLGNVIMVCRKGEWVALNPLRKCQKRPCGHPGDTPFGTFTLTGGNVFEYGVKAVYTCNEGYQLLGEINYRECDTDGWTNDIPICEVVKCLPVTAPENGKIVSSAMEPDREYHFGQAVRFVCNSGYKIEGDEEMHCSDDGFWSKEKPKCVEISCKSPDVINGSPISQKIIYKENERFQYKCNMGYEYSERGDAVCTESGWRPLPSCEEKSGASGCGPPPELLNGNVKEKTKEEYGHSEVVEYYCNPRFLMKGPNKIQCVDGEWTTLPVCIVEESTCGDIPELEHGWAQLSSPPYYYGDSVEFNCSESFTMIGHRSITCIHGVWTQLPQCVAIDKLKKCKSSNLIILEEHLKNKKEFDHNSNIRYRCRGKEGWIHTVCINGRWDPEVNCSMAQIQLCPPPPQIPNSHNMTTTLNYRDGEKVSVLCQENYLIQEGEEITCKDGRWQSIPLCVEKIPCSQPPQIEHGTINSSRSSQESYAHGTKLSYTCEGGFRISEENETTCYMGKWSSPPQCEGLPCKSPPEISHGVVAHMSDSYQYGEEVTYKCFEGFGIDGPAIAKCLGEKWSHPPSCIKTDCLSLPSFENAIPMGEKKDVYKAGEQVTYTCATYYKMDGASNVTCINSRWTGRPTCRDTSCVNPPTVQNAYIVSRQMSKYPSGERVRYQCRSPYEMFGDEEVMCLNGNWTEPPQCKDSTGKCGPPPPIDNGDITSFPLSVYAPASSVEYQCQNLYQLEGNKRITCRNGQWSEPPKCLHPCVISREIMENYNIALRWTAKQKLYSRTGESVEFVCKRGYRLSSRSHTLRTTCWDGKLEYPTCAKRGGSGHHHHHH
Take B3: the “C3 convertase activity % of the control” value was 17 % of the control and the “C3 convertase activity IC50” value came to 0.546 µg/mL.

B4: pCEP4-1NT11-16CT20 (other)
chain: EDCNELPPRRNTEILTGSWSDQTYPEGTQAIYKCRPGYRSLGNVIMVCRKGEWVALNPLRKCQKRPCGHPGDTPFGTFTLTGGNVFEYGVKAVYTCNEGYQLLGEINYRECDTDGWTNDIPICEVVKCLPVTAPENGKIVSSAMEPDREYHFGQAVRFVCNSGYKIEGDEEMHCSDDGFWSKEKPKCVEISCKSPDVINGSPISQKIIYKENERFQYKCNMGYEYSERGDAVCTESGWRPLPSCEEKSCDNPYIPNGDYSPLRIKHRTGDEITYQCRNGFYPATRGNTAKCTSTGWIPAPRCTLKPCDYPDIKHGGLYHENMRRPYFPVAVGKYYSYYCDEHFETPSGSYWDHIHCTQDGWSPAVPCLRKCYFPYLENGYNQNHGRKFVQGKSIDVACHPGYALPKAQTTVTCMENGWSPTPRCIRVKTCSKSSIDIENGFISESQYTYALKEKAKYQCKLGYVTADGETSGSITCGKDGWSAQPTCIKSCDIPVFMNARTKNDFTWFKLNDTLDYECHDGYESNTGSTTGSIVCGYNGWSDLPICYERECELPKIDVHLVPDRKKDQYKVGEVLKFSCKPGFTIVGPNSVQCYHFGLSPDLPICKEQVQSCGPPPELLNGNVKEKTKEEYGHSEVVEYYCNPRFLMKGPNKIQCVDGEWTTLPVCIVEESTGASGCKSPPEISHGVVAHMSDSYQYGEEVTYKCFEGFGIDGPAIAKCLGEKWSHPPSCIKTDCLSLPSFENAIPMGEKKDVYKAGEQVTYTCATYYKMDGASNVTCINSRWTGRPTCRDTSCVNPPTVQNAYIVSRQMSKYPSGERVRYQCRSPYEMFGDEEVMCLNGNWTEPPQCKDSTGKCGPPPPIDNGDITSFPLSVYAPASSVEYQCQNLYQLEGNKRITCRNGQWSEPPKCLHPCVISREIMENYNIALRWTAKQKLYSRTGESVEFVCKRGYRLSSRSHTLRTTCWDGKLEYPTCAKRGGSGHHHHHH
As to B4, the “C3 convertase activity % of the control” value is 8 % of the control and the “C3 convertase activity IC50” value came out at 1.21 µg/mL.

B5: pCEP4-1NT7-16CT20 (other)
chain: EDCNELPPRRNTEILTGSWSDQTYPEGTQAIYKCRPGYRSLGNVIMVCRKGEWVALNPLRKCQKRPCGHPGDTPFGTFTLTGGNVFEYGVKAVYTCNEGYQLLGEINYRECDTDGWTNDIPICEVVKCLPVTAPENGKIVSSAMEPDREYHFGQAVRFVCNSGYKIEGDEEMHCSDDGFWSKEKPKCVEISCKSPDVINGSPISQKIIYKENERFQYKCNMGYEYSERGDAVCTESGWRPLPSCEEKSCDNPYIPNGDYSPLRIKHRTGDEITYQCRNGFYPATRGNTAKCTSTGWIPAPRCTLKPCDYPDIKHGGLYHENMRRPYFPVAVGKYYSYYCDEHFETPSGSYWDHIHCTQDGWSPAVPCLRKCYFPYLENGYNQNYGRKFVQGKSIDVACHPGYALPKAQTTVTCMENGWSPTPRCIRVKTGASGCKSPPEISHGVVAHMSDSYQYGEEVTYKCFEGFGIDGPAIAKCLGEKWSHPPSCIKTDCLSLPSFENAIPMGEKKDVYKAGEQVTYTCATYYKMDGASNVTCINSRWTGRPTCRDTSCVNPPTVQNAYIVSRQMSKYPSGERVRYQCRSPYEMFGDEEVMCLNGNWTEPPQCKDSTGKCGPPPPIDNGDITSFPLSVYAPASSVEYQCQNLYQLEGNKRITCRNGQWSEPPKCLHPCVISREIMENYNIALRWTAKQKLYSRTGESVEFVCKRGYRLSSRSHTLRTTCWDGKLEYPTCAKRGGSGHHHHHH
With B5, the “C3 convertase activity % of the control” value was 15 % of the control and the “C3 convertase activity IC50” value was found to be 0.442 µg/mL.

B6: pCEP4-1NT4-14CT20 (other)
chain: EDCNELPPRRNTEILTGSWSDQTYPEGTQAIYKCRPGYRSLGNVIMVCRKGEWVALNPLRKCQKRPCGHPGDTPFGTFTLTGGNVFEYGVKAVYTCNEGYQLLGEINYRECDTDGWTNDIPICEVVKCLPVTAPENGKIVSSAMEPDREYHFGQAVRFVCNSGYKIEGDEEMHCSDDGFWSKEKPKCVEISCKSPDVINGSPISQKIIYKENERFQYKCNMGYEYSERGDAVCTESGWRPLPSCEEKSGASGCPPPPQIPNSHNMTTTLNYRDGEKVSVLCQENYLIQEGEEITCKDGRWQSIPLCVEKIPCSQPPQIEHGTINSSRSSQESYAHGTKLSYTCEGGFRISEENETTCYMGKWSSPPQCEGLPCKSPPEISHGVVAHMSDSYQYGEEVTYKCFEGFGIDGPAIAKCLGEKWSHPPSCIKTDCLSLPSFENAIPMGEKKDVYKAGEQVTYTCATYYKMDGASNVTCINSRWTGRPTCRDTSCVNPPTVQNAYIVSRQMSKYPSGERVRYQCRSPYEMFGDEEVMCLNGNWTEPPQCKDSTGKCGPPPPIDNGDITSFPLSVYAPASSVEYQCQNLYQLEGNKRITCRNGQWSEPPKCLHPCVISREIMENYNIALRWTAKQKLYSRTGESVEFVCKRGYRLSSRSHTLRTTCWDGKLEYPTCAKRGGSGHHHHHH
As for B6, the “C3 convertase activity % of the control” value was 15 % of the control and the “C3 convertase activity IC50” value turned out to be 0.618 µg/mL.

B7: pCEP4-1NT11-15CT20 (other)
chain: EDCNELPPRRNTEILTGSWSDQTYPEGTQAIYKCRPGYRSLGNVIMVCRKGEWVALNPLRKCQKRPCGHPGDTPFGTFTLTGGNVFEYGVKAVYTCNEGYQLLGEINYRECDTDGWTNDIPICEVVKCLPVTAPENGKIVSSAMEPDREYHFGQAVRFVCNSGYKIEGDEEMHCSDDGFWSKEKPKCVEISCKSPDVINGSPISQKIIYKENERFQYKCNMGYEYSERGDAVCTESGWRPLPSCEEKSCDNPYIPNGDYSPLRIKHRTGDEITYQCRNGFYPATRGNTAKCTSTGWIPAPRCTLKPCDYPDIKHGGLYHENMRRPYFPVAVGKYYSYYCDEHFETPSGSYWDHIHCTQDGWSPAVPCLRKCYFPYLENGYNQNHGRKFVQGKSIDVACHPGYALPKAQTTVTCMENGWSPTPRCIRVKTCSKSSIDIENGFISESQYTYALKEKAKYQCKLGYVTADGETSGSITCGKDGWSAQPTCIKSCDIPVFMNARTKNDFTWFKLNDTLDYECHDGYESNTGSTTGSIVCGYNGWSDLPICYERECELPKIDVHLVPDRKKDQYKVGEVLKFSCKPGFTIVGPNSVQCYHFGLSPDLPICKEQVQSCGPPPELLNGNVKEKTKEEYGHSEVVEYYCNPRFLMKGPNKIQCVDGEWTTLPVCIVEESTGASGCSQPPQIEHGTINSSRSSQESYAHGTKLSYTCEGGFRISEENETTCYMGKWSSPPQCEGLPCKSPPEISHGVVAHMSDSYQYGEEVTYKCFEGFGIDGPAIAKCLGEKWSHPPSCIKTDCLSLPSFENAIPMGEKKDVYKAGEQVTYTCATYYKMDGASNVTCINSRWTGRPTCRDTSCVNPPTVQNAYIVSRQMSKYPSGERVRYQCRSPYEMFGDEEVMCLNGNWTEPPQCKDSTGKCGPPPPIDNGDITSFPLSVYAPASSVEYQCQNLYQLEGNKRITCRNGQWSEPPKCLHPCVISREIMENYNIALRWTAKQKLYSRTGESVEFVCKRGYRLSSRSHTLRTTCWDGKLEYPTCAKRGGSGHHHHHH
On to B7, for which the “C3 convertase activity % of the control” value is 10 % of the control and the “C3 convertase activity IC50” value worked out at 0.74 µg/mL.

(Values after US20170190753A1 (LABORATOIRE FRANCAIS DU FRACTIONNEMENT ET DES …, published 2017).)
